Data as given in patent publication US20210147507A1, “METHODS TO AUGMENT OR ALTER SIGNAL TRANSDUCTION” (Bellicum Pharmaceuticals, Inc., priority 2017, published 2021).

Tested on: chimeric Caspase-9 polypeptide
Test: Caspase-9 mutant classes and basal activity (Table 5)
Assay type: cell-based
Settings: Caspase-9 mutant class; for Basal Activity: basal (ligand-independent) signaling compared with unmodified chimeric Caspase-9; for IC50: ligand IC50 compared with unmodified chimeric Caspase-9
Text: Even though homo-dimerization of wild-type initiator Caspase-9 is energetically unfavorable, making them mostly monomers in solution [14-16], the low-level inherent basal activity of unprocessed Caspase-9 [15, 17] is enhanced in the presence of the Apaf-1-based “apoptosome”, its natural allosteric regulator [6]. Moreover, supra-physiological expression levels and/or co-localization could lead to proximity-driven dimerization, further enhancing basal activation. The modified cells of the present application may comprise nucleic acids coding for a chimeric Caspase-9 polypeptide having lower basal signaling activity. Polynucleotides comprising Caspase-9 mutants with lower basal signaling may be expressed in the modified cells used for cell therapy herein. In these examples, the modified cells may include a safety switch, comprising a polynucleotide encoding a lower basal signaling chimeric Caspase-9 polypeptide. In the event of an adverse event following administration of the modified cells comprising the chimeric signaling polypeptides or chimeric antigen receptors herein, Caspase-9 activity may be induced by administering the dimerizer to the patient, thus inducing apoptosis and clearance of some, or all of the modified cells. In some examples, the amount of dimerizer administered may be determined as an amount designed to remove the highest amount, at least 80% or 90% of the modified cells. In other examples, the amount of dimerizer administered may be determined as an amount designed to remove only a portion of the modified cells, in order to alleviate negative symptoms or conditions, while leaving a sufficient amount of therapeutic modified cells in the patient, in order to continue therapy. Methods for using chimeric Caspase-9 polypeptides to induce apoptosis are discussed in PCT Application Number PCT/US2011/037381 by Malcolm K. Brenner et al., titled Methods for Inducing Selective Apoptosis, filed May 20, 2011, and in U.S. patent application Ser. No. 13/112,739 by Malcolm K. Brenner et al., titled Methods for Inducing Selective Apoptosis, filed May 20, 2011, issued Jul. 28, 2015 as U.S. Pat. No. 9,089,520. Chimeric caspase polypeptides having modified basal activity are discussed in PCT Application Serial Number PCT/US2014/022004 by David Spencer et al., titled Modified Caspase Polypeptides and Uses Thereof, filed Mar. 7, 2014, published Oct. 9, 2014 as WO2014/164348, and in U.S. patent application Ser. No. 13/792,135 by David Spencer et al., titled Modified Caspase Polypeptides and Uses Thereof, filed Mar. 7, 2014; and in U.S. patent application Ser. No. 14/640,553 by Spencer et al., filed Mar. 6, 2015. Methods for inducing partial apoptosis of the therapeutic modified cells are discussed in PCT Application Number PCT/US14/040964 by Kevin Slawin et al., titled Methods for Inducing Partial Apoptosis Using Caspase Polypeptides, filed Jun. 4, 2014, published Dec. 11, 2014 as WO2014/197638, and in U.S. patent application Ser. No. 14/296,404 by Kevin Slawin et al., titled Methods for Inducing Partial Apoptosis Using Caspase Polypeptides, filed Jun. 4, 2014. These patent applications and publications are all incorporated by reference herein in their entireties.

Sequence of chimeric Caspase-9 polypeptide (P62942 2-108 F37V limits assumed): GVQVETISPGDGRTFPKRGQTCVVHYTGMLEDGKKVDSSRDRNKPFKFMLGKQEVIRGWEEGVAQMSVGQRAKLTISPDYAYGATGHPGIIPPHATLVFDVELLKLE

Molecule | Basal Activity | IC50
D330A (protein) GFGDVGALESLRGNADLAYILSMEPCGHCLIINNVNFCRESGLRTRTGSNIDCEKLRRRFSSLHFMVEVKGDLTAKKMVLALLELARQDHGALDCCVVVILSHGCQASHLQFPGAVYGTDGCPVSVEKIVNIFNGTSCPSLGGKPKLFFIQACGGEQKDHGFEVASTSPEDESPGSNPEPDATPFQEGLRTFDQLAAISSLPTPSDIFVSYSTFPGFVSWRDPKSGSWYVETLDDIFEQWAHSEDLQSLLLRVANAVSVKGIYKQMPGCFNFLRKKLFFKTSASRA | Decreased | higher IC50
D315A (protein) GFGDVGALESLRGNADLAYILSMEPCGHCLIINNVNFCRESGLRTRTGSNIDCEKLRRRFSSLHFMVEVKGDLTAKKMVLALLELARQDHGALDCCVVVILSHGCQASHLQFPGAVYGTDGCPVSVEKIVNIFNGTSCPSLGGKPKLFFIQACGGEQKDHGFEVASTSPEDESPGSNPEPAATPFQEGLRTFDQLDAISSLPTPSDIFVSYSTFPGFVSWRDPKSGSWYVETLDDIFEQWAHSEDLQSLLLRVANAVSVKGIYKQMPGCFNFLRKKLFFKTSASRA | Decreased | much higher
A316G (protein) GFGDVGALESLRGNADLAYILSMEPCGHCLIINNVNFCRESGLRTRTGSNIDCEKLRRRFSSLHFMVEVKGDLTAKKMVLALLELARQDHGALDCCVVVILSHGCQASHLQFPGAVYGTDGCPVSVEKIVNIFNGTSCPSLGGKPKLFFIQACGGEQKDHGFEVASTSPEDESPGSNPEPDGTPFQEGLRTFDQLDAISSLPTPSDIFVSYSTFPGFVSWRDPKSGSWYVETLDDIFEQWAHSEDLQSLLLRVANAVSVKGIYKQMPGCFNFLRKKLFFKTSASRA | Decreased | much higher
Y153F (protein) GFGDVGALESLRGNADLAFILSMEPCGHCLIINNVNFCRESGLRTRTGSNIDCEKLRRRFSSLHFMVEVKGDLTAKKMVLALLELARQDHGALDCCVVVILSHGCQASHLQFPGAVYGTDGCPVSVEKIVNIFNGTSCPSLGGKPKLFFIQACGGEQKDHGFEVASTSPEDESPGSNPEPDATPFQEGLRTFDQLDAISSLPTPSDIFVSYSTFPGFVSWRDPKSGSWYVETLDDIFEQWAHSEDLQSLLLRVANAVSVKGIYKQMPGCFNFLRKKLFFKTSASRA | Decreased | much higher
F404T (protein) GFGDVGALESLRGNADLAYILSMEPCGHCLIINNVNFCRESGLRTRTGSNIDCEKLRRRFSSLHFMVEVKGDLTAKKMVLALLELARQDHGALDCCVVVILSHGCQASHLQFPGAVYGTDGCPVSVEKIVNIFNGTSCPSLGGKPKLFFIQACGGEQKDHGFEVASTSPEDESPGSNPEPDATPFQEGLRTFDQLDAISSLPTPSDIFVSYSTFPGFVSWRDPKSGSWYVETLDDIFEQWAHSEDLQSLLLRVANAVSVKGIYKQMPGCTNFLRKKLFFKTSASRA | Decreased | much higher
Y153A (protein) GFGDVGALESLRGNADLAAILSMEPCGHCLIINNVNFCRESGLRTRTGSNIDCEKLRRRFSSLHFMVEVKGDLTAKKMVLALLELARQDHGALDCCVVVILSHGCQASHLQFPGAVYGTDGCPVSVEKIVNIFNGTSCPSLGGKPKLFFIQACGGEQKDHGFEVASTSPEDESPGSNPEPDATPFQEGLRTFDQLDAISSLPTPSDIFVSYSTFPGFVSWRDPKSGSWYVETLDDIFEQWAHSEDLQSLLLRVANAVSVKGIYKQMPGCFNFLRKKLFFKTSASRA | Decreased | much higher
F319W (protein) GFGDVGALESLRGNADLAYILSMEPCGHCLIINNVNFCRESGLRTRTGSNIDCEKLRRRFSSLHFMVEVKGDLTAKKMVLALLELARQDHGALDCCVVVILSHGCQASHLQFPGAVYGTDGCPVSVEKIVNIFNGTSCPSLGGKPKLFFIQACGGEQKDHGFEVASTSPEDESPGSNPEPDATPWQEGLRTFDQLDAISSLPTPSDIFVSYSTFPGFVSWRDPKSGSWYVETLDDIFEQWAHSEDLQSLLLRVANAVSVKGIYKQMPGCFNFLRKKLFFKTSASRA | Decreased | much higher
D330E (protein) GFGDVGALESLRGNADLAYILSMEPCGHCLIINNVNFCRESGLRTRTGSNIDCEKLRRRFSSLHFMVEVKGDLTAKKMVLALLELARQDHGALDCCVVVILSHGCQASHLQFPGAVYGTDGCPVSVEKIVNIFNGTSCPSLGGKPKLFFIQACGGEQKDHGFEVASTSPEDESPGSNPEPDATPFQEGLRTFDQLEAISSLPTPSDIFVSYSTFPGFVSWRDPKSGSWYVETLDDIFEQWAHSEDLQSLLLRVANAVSVKGIYKQMPGCFNFLRKKLFFKTSASRA | Decreased | higher IC50
S307A (protein) GFGDVGALESLRGNADLAYILSMEPCGHCLIINNVNFCRESGLRTRTGSNIDCEKLRRRFSSLHFMVEVKGDLTAKKMVLALLELARQDHGALDCCVVVILSHGCQASHLQFPGAVYGTDGCPVSVEKIVNIFNGTSCPSLGGKPKLFFIQACGGEQKDHGFEVASTSPEDEAPGSNPEPDATPFQEGLRTFDQLDAISSLPTPSDIFVSYSTFPGFVSWRDPKSGSWYVETLDDIFEQWAHSEDLQSLLLRVANAVSVKGIYKQMPGCFNFLRKKLFFKTSASRA | Decreased | much higher

Other lines, results leading:

Basal Activity | IC50 | Molecule
Decreased | higher IC50 | N405Qco (protein, UniProt P55211 1-416, looked up, variant N405Q, codon-optimized; in iC9 construct) MDEADRRLLRRCRLRLVEELQVDQLWDALLSRELFRPHMIEDIQRAGSGSRRDQARQLIIDLETRGSQALPLFISCLEDTGQDMLASFLRTNRQAAKLSKPTLENLTPVVLRPEIRKPEVLRPETPRPVDIGSGGFGDVGALESLRGNADLAYILSMEPCGHCLIINNVNFCRESGLRTRTGSNIDCEKLRRRFSSLHFMVEVKGDLTAKKMVLALLELAQQDHGALDCCVVVILSHGCQASHLQFPGAVYGTDGCPVSVEKIVNIFNGTSCPSLGGKPKLFFIQACGGEQKDHGFEVASTSPEDESPGSNPEPDATPFQEGLRTFDQLDAISSLPTPSDIFVSYSTFPGFVSWRDPKSGSWYVETLDDIFEQWAHSEDLQSLLLRVANAVSVKGIYKQMPGCFQFLRKKLFFKTS
Decreased | much higher | F404W (protein) GFGDVGALESLRGNADLAYILSMEPCGHCLIINNVNFCRESGLRTRTGSNIDCEKLRRRFSSLHFMVEVKGDLTAKKMVLALLELARQDHGALDCCVVVILSHGCQASHLQFPGAVYGTDGCPVSVEKIVNIFNGTSCPSLGGKPKLFFIQACGGEQKDHGFEVASTSPEDESPGSNPEPDATPFQEGLRTFDQLDAISSLPTPSDIFVSYSTFPGFVSWRDPKSGSWYVETLDDIFEQWAHSEDLQSLLLRVANAVSVKGIYKQMPGCWNFLRKKLFFKTSASRA
Decreased | much higher | F406T (protein) GFGDVGALESLRGNADLAYILSMEPCGHCLIINNVNFCRESGLRTRTGSNIDCEKLRRRFSSLHFMVEVKGDLTAKKMVLALLELARQDHGALDCCVVVILSHGCQASHLQFPGAVYGTDGCPVSVEKIVNIFNGTSCPSLGGKPKLFFIQACGGEQKDHGFEVASTSPEDESPGSNPEPDATPFQEGLRTFDQLDAISSLPTPSDIFVSYSTFPGFVSWRDPKSGSWYVETLDDIFEQWAHSEDLQSLLLRVANAVSVKGIYKQMPGCFNTLRKKLFFKTSASRA
Decreased | much higher | N405F (protein) GFGDVGALESLRGNADLAYILSMEPCGHCLIINNVNFCRESGLRTRTGSNIDCEKLRRRFSSLHFMVEVKGDLTAKKMVLALLELARQDHGALDCCVVVILSHGCQASHLQFPGAVYGTDGCPVSVEKIVNIFNGTSCPSLGGKPKLFFIQACGGEQKDHGFEVASTSPEDESPGSNPEPDATPFQEGLRTFDQLDAISSLPTPSDIFVSYSTFPGFVSWRDPKSGSWYVETLDDIFEQWAHSEDLQSLLLRVANAVSVKGIYKQMPGCFFFLRKKLFFKTSASRA
